Experimental data from patent US20100297662A1.

What was measured:
[1] = target: amylospheroid 42 (Homo sapiens (Human)) (UniProt P05067); experiment: SPR, ratio of Kd values (40Aβ against 42ASPD)
[2] = target: amylospheroid 42 (Homo sapiens (Human)) (UniProt P05067); experiment: SPR, ratio of Kd values (42 fibril against 42ASPD)
[3] = target: Aβ fibril (42 fibril) prepared from 42Aβ (Homo sapiens (Human)) (UniProt P05067); experiment: SPR (BIAcore), antigen on CM5 chip, antibody in solution
[4] = target: amylospheroid 42 (Homo sapiens (Human)) (UniProt P05067); experiment: as above
[5] = target: monomeric amyloid β40-protein (Aβ1-40); experiment: as above
Chain of monomeric amyloid β40-protein (Aβ1-40) (peptide, as listed by the source): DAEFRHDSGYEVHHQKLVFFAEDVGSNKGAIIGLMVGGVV

[6] = target: Aβ fibril prepared from amyloid β40 (Homo sapiens (Human)) (UniProt P05067); experiment: SPR (BIAcore 3000), antigen on CM5 chip, antibody in solution
[7] = target: amylospheroid 42 (Homo sapiens (Human)) (UniProt P05067); experiment: as above
[8] = target: monomeric amyloid β40-protein (Aβ1-40); experiment: as above
[9] = target: monomeric amyloid β42-protein (Aβ1-42); experiment: as above
Chain of monomeric amyloid β42-protein (Aβ1-42) (peptide, as listed by the source): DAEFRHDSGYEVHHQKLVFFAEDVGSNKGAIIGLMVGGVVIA

[10] = target: ASPD (amylospheroid; Aβ species not stated); experiment: competitive ELISA: antibody pre-reacted with ASPD in solution, then ASPD solid-phase plate
[11] = target: commercially available amyloid precursor protein sAPPα (Sigma) (UniProt P05067); experiment: competitive ELISA: antibody pre-reacted with sAPPα in solution, then ASPD solid-phase plate

fold higher affinity with ASPD than with amyloid β-monomer [1] [times]	fold higher affinity with ASPD than with amyloid fibril [2] [times]	Kd [3] [nM]	Kd [4] [nM]	Kd [5] [nM]	Kd [6] [nM]	Kd [7] [nM]	Kd [8] [nM]	Kd [9] [nM]	IC50 [10] [nM]	IC50 [11] [nM]	Substance
34	2	0.231	0.115	3.93	–	–	–	–	–	–	anti-Aβ antibody 3D6 (US 20030165496 A1), produced as a mouse IgG2b/κ molecule
–	–	–	–	–	1.33	18.3	37.3	17.2	3.7	16.1	commercially available anti-amyloid β antibody 6E10 (Senetek)
